Experimental data as given in patent publication US20020132977A1 (Harvard, published 2002).

Biological target: T1, GFP-tagged p73 (human, UniProt O15350 1-636)
T1 construct: also called GFP-p73; not shown: GFP (pEGFP vector)
T1 sequence: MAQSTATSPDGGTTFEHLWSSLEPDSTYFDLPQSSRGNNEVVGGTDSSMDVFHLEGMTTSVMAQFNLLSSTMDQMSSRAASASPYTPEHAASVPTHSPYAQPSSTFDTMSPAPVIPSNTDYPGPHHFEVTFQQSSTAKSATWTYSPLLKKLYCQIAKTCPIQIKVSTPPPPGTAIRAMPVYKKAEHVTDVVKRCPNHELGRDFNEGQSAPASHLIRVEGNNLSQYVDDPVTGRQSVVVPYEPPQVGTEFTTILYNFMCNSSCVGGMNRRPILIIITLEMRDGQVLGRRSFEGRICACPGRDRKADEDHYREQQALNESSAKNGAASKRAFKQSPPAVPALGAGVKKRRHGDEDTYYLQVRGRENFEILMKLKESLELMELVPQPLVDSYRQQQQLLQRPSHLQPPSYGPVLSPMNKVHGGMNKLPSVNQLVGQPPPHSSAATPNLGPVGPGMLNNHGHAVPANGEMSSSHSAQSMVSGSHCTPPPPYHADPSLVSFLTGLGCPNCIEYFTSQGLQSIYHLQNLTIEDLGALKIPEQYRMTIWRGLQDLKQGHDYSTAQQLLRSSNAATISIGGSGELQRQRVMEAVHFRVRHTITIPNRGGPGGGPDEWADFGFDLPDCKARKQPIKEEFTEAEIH
Assay: anti-Flag IP, anti-GFP Western

binding result: no binding
B1: p73β (p53aa319-364) (other)
chain: MAQSTATSPDGGTTFEHLWSSLEPDSTYFDLPQSSRGNNEVVGGTDSSMDVFHLEGMTTSVMAQFNLLSSTMDQMSSRAASASPYTPEHAASVPTHSPYAQPSSTFDTMSPAPVIPSNTDYPGPHHFEVTFQQSSTAKSATWTYSPLLKKLYCQIAKTCPIQIKVSTPPPPGTAIRAMPVYKKAEHVTDVVKRCPNHELGRDFNEGQSAPASHLIRVEGNNLSQYVDDPVTGRQSVVVPYEPPQVGTEFTTILYNFMCNSSCVGGMNRRPILIIITLEMRDGQVLGRRSFEGRICACPGRDRKADEDHYREQQALNESSAKNGAASKRAFKQSPPAVPALGAGVKKKPLDGEYFTLQIRGRERFEMFRELNEALELKDAQAGKEPGGSRAQQQQLLQRPSHLQPPSYGPVLSPMNKVHGGMNKLPSVNQLVGQPPPHSSAATPNLGPVGPGMLNNHGHAVPANGEMSSSHSAQSMVSGSHCTPPPPYHADPSLVRTWGP
notes: range 1-344;range 391-C-terminus; also called p73 chimera with OD of p53; Flag-tagged p53-p73 chimera with switched OD; not shown: Flag tag
